Reference: article PMC10946529

Target: T1, [FeFe]-hydrogenase CaHydA from Clostridium acetobutylicum (Clostridium acetobutylicum) (UniProt Q59262)
T1 sequence: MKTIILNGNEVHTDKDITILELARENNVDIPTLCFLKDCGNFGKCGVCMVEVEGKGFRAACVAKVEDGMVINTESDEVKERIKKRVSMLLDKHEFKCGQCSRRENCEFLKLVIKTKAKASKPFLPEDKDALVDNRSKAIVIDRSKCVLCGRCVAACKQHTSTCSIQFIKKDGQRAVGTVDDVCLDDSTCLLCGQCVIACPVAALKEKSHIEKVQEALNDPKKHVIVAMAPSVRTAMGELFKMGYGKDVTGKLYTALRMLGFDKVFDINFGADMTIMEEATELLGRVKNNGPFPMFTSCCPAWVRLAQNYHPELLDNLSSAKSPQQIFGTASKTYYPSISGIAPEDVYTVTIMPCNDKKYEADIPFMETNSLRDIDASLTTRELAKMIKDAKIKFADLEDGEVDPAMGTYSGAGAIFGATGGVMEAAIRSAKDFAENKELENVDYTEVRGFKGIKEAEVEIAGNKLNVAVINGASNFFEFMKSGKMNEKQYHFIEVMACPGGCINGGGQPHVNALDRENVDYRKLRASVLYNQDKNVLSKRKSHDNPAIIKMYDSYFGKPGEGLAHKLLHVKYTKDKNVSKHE

- turnover frequency (TOF) of electron transfer from CaHydA to the Mq5 cluster in H2 oxidation, assuming cluster concentration equal to the peptide concentration: 79 s⁻¹
- turnover frequency (TOF) of electron transfer from CaHydA to the Mq5 cluster in H2 oxidation, corrected for about 40 % cluster formation relative to FdM1: 31 s⁻¹
Binder: Ac-GCGGGCGGCGGCGY-NH2 (also: [4Fe4S] cluster coordinated by the four Cys) [[4Fe4S]-peptide maquette Mq5 (Ac-…-NH2)]
